The Tm is the temperature at the midpoint of the melting transition.

The conditions of the series: Bacillus amyloliquefaciens; pH 8; Thermal; DSC; Tris-HCl 5.0 mM; KCl 50 mM; reversible: yes; whole UniProt chain shown.

B1: Subtilisin BPN' wild type, P00782 (protein)
chain: MRGKKVWISLLFALALIFTMAFGSTSSAQAAGKSNGEKKYIVGFKQTMSTMSAAKKKDVISEKGGKVQKQFKYVDAASATLNEKAVKELKKDPSVAYVEEDHVAHAYAQSVPYGVSQIKAPALHSQGYTGSNVKVAVIDSGIDSSHPDLKVAGGASMVPSETNPFQDNNSHGTHVAGTVAALNNSIGVLGVAPSASLYAVKVLGADGSGQYSWIINGIEWAIANNMDVINMSLGGPSGSAALKAAVDKAVASGVVVVAAAGNEGTSGSSSTVGYPGKYPSVIAVGAVDSSNQRASFSSVGPELDVMAPGVSIQSTLPGNKYGAYNGTSMASPHVAGAAALILSKHPNWTNTQVRSSLENTTTKLGDSFYYGKGLINVQAAAQ
Consider B1, for which the Tm is 58.5 °C, the “heat capacity change of unfolding” value is 4.8 kcal/mol/K, the “unfolding enthalpy (calorimetric)” value worked out at 88.3 kcal/mol and the “unfolding enthalpy (van 't Hoff)” value was 97 kcal/mol.

(Values after FireProtDB (doi:10.1021/bi00444a012).)
